# T1: PUF4 RNA-binding domain (Saccharomyces cerevisiae, UniProt P25339 537-888)
# T1 sequence: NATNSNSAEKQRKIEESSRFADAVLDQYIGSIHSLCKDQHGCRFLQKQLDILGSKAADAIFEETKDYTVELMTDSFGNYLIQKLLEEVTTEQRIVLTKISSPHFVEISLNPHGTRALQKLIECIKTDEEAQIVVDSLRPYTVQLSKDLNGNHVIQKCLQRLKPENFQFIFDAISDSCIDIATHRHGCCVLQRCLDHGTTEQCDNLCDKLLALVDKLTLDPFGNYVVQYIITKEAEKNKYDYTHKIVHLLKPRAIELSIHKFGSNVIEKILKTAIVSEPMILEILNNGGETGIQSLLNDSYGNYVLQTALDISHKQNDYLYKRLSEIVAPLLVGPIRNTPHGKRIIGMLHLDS
# Target: T1, PUF4 RNA-binding domain
# Assay: Mg; RNA-MaP; 20 mM Na-HEPES pH 7.4, 30 mM KOAc, 0.75 mM MgCl2, 0.1% Tween-20, 5% glycerol, 0.1 mg/mL BSA, 2 mM DTT; 25 C; 0.0125-409.6 nM protein
# Details: tags: N-His6-TEV cleaved; C-SNAP kept, Cy3B-labelled; label: tethered on chip by stalled RNA polymerase
row,Binder,Kd
1,Ic_S2_P4E.1_K4.1_C4.1_H4.1_A4.1_[A6C]_F4.1_[T8C]_[A9T]_T4.1 (ssRNA) RNA: UUUGAUUAAUAUGAUAUCGUUCUUUCUUGUAUCUCUUUCUUUCUCGAUAUCAUAUUAAUCUUU,17.7 nM
2,Ic_S2_P4E.1_K4.1_C4.1_H4.1_A4.1_[A6C]_[T7G]_F4.1_[A9C]_T4.1 (ssRNA) RNA: UUUGAUUAAUAUGAUAUCGUUCUUUCUUGUAUCGUCUUCUUUCUCGAUAUCAUAUUAAUCUUU,507 nM
3,Ic_S2_P4E.1_K4.1_C4.1_H4.1_A4.1_[A6C]_F4.1_[T8A]_[A9T]_T4.1 (ssRNA) RNA: UUUGAUUAAUAUGAUAUCGUUCUUUCUUGUAUCUAUUUCUUUCUCGAUAUCAUAUUAAUCUUU,7.99 nM
4,Ic_S2_P4E.1_K4.1_C4.1_H4.1_A4.1_[A6T]_[T7G]_F4.1_[A9C]_T4.1 (ssRNA) RNA: UUUGAUUAAUAUGAUAUCGUUCUUUCUUGUAUUGUCUUCUUUCUCGAUAUCAUAUUAAUCUUU,127 nM
5,Ic_S2_P4E.1_K4.1_C4.1_H4.1_A4.1_[A6G]_F4.1_[T8G]_[A9G]_T4.1 (ssRNA) RNA: UUUGAUUAAUAUGAUAUCGUUCUUUCUUGUAUGUGGUUCUUUCUCGAUAUCAUAUUAAUCUUU,215 nM
6,Ic_S2_P4E.1_K4.1_C4.1_H4.1_A4.1_[A6G]_[T7C]_F4.1_[T8A]_T4.1 (ssRNA) RNA: UUUGAUUAAUAUGAUAUCGUUCUUUCUUGUAUGCAAUUCUUUCUCGAUAUCAUAUUAAUCUUU,239 nM
7,Ic_S2_P4E.1_K4.1_C4.1_H4.1_A4.1_[A6G]_F4.1_[T8A]_[A9T]_T4.1 (ssRNA) RNA: UUUGAUUAAUAUGAUAUCGUUCUUUCUUGUAUGUAUUUCUUUCUCGAUAUCAUAUUAAUCUUU,26.9 nM
8,Ic_S2_P4E.1_K4.1_C4.1_H4.1_A4.1_[A6C]_[T7C]_F4.1_[T8C]_[A9T]_T4.1 (ssRNA) RNA: UUUGAUUAAUAUGAUAUCGUUCUUUCUUGUAUCCCUUUCUUUCUCGAUAUCAUAUUAAUCUUU,166 nM
9,Ic_S2_P4E.1_K4.1_C4.1_H4.1_A4.1_[A6G]_F4.1_[T8G]_[A9C]_T4.1 (ssRNA) RNA: UUUGAUUAAUAUGAUAUCGUUCUUUCUUGUAUGUGCUUCUUUCUCGAUAUCAUAUUAAUCUUU,40 nM
10,Ic_S2_P4E.1_K4.1_C4.1_H4.1_A4.1_[A6C]_[T7G]_F4.1_[A9G]_T4.1 (ssRNA) RNA: UUUGAUUAAUAUGAUAUCGUUCUUUCUUGUAUCGUGUUCUUUCUCGAUAUCAUAUUAAUCUUU,59.3 nM
11,Ic_S2_P4E.1_K4.1_C4.1_H4.1_A4.1_[A6C]_[T7A]_F4.1_[T8C]_[A9T]_T4.1 (ssRNA) RNA: UUUGAUUAAUAUGAUAUCGUUCUUUCUUGUAUCACUUUCUUUCUCGAUAUCAUAUUAAUCUUU,76.1 nM
12,Ic_S2_P4E.1_K4.1_C4.1_H4.1_A4.1_[A6C]_F4.1_[T8G]_[A9T]_T4.1 (ssRNA) RNA: UUUGAUUAAUAUGAUAUCGUUCUUUCUUGUAUCUGUUUCUUUCUCGAUAUCAUAUUAAUCUUU,17.9 nM
13,Ic_S2_P4E.1_K4.1_C4.1_H4.1_A4.1_[A6G]_[T7C]_F4.1_[T8A]_[A9C]_T4.1 (ssRNA) RNA: UUUGAUUAAUAUGAUAUCGUUCUUUCUUGUAUGCACUUCUUUCUCGAUAUCAUAUUAAUCUUU,848 nM
14,Ic_S2_P4E.1_K4.1_C4.1_H4.1_A4.1_[A6C]_[T7C]_F4.1_[T8A]_T4.1 (ssRNA) RNA: UUUGAUUAAUAUGAUAUCGUUCUUUCUUGUAUCCAAUUCUUUCUCGAUAUCAUAUUAAUCUUU,369 nM
15,Ic_S2_P4E.1_K4.1_C4.1_H4.1_A4.1_[A6C]_[T7C]_F4.1_[T8G]_[A9G]_T4.1 (ssRNA) RNA: UUUGAUUAAUAUGAUAUCGUUCUUUCUUGUAUCCGGUUCUUUCUCGAUAUCAUAUUAAUCUUU,866 nM
16,Ic_S2_P4E.1_K4.1_C4.1_H4.1_A4.1_[A6C]_[T7A]_F4.1_[T8A]_[A9C]_T4.1 (ssRNA) RNA: UUUGAUUAAUAUGAUAUCGUUCUUUCUUGUAUCAACUUCUUUCUCGAUAUCAUAUUAAUCUUU,309 nM
17,Ic_S2_P4E.1_K4.1_C4.1_H4.1_A4.1_[A6G]_F4.1_[T8C]_[A9T]_T4.1 (ssRNA) RNA: UUUGAUUAAUAUGAUAUCGUUCUUUCUUGUAUGUCUUUCUUUCUCGAUAUCAUAUUAAUCUUU,57 nM
18,Ic_S2_P4E.1_K4.1_C4.1_H4.1_A4.1_[A6G]_F4.1_[T8C]_[A9C]_T4.1 (ssRNA) RNA: UUUGAUUAAUAUGAUAUCGUUCUUUCUUGUAUGUCCUUCUUUCUCGAUAUCAUAUUAAUCUUU,32.5 nM
19,Ic_S2_P4E.1_K4.1_C4.1_H4.1_A4.1_[A6G]_[T7C]_F4.1_[A9T]_T4.1 (ssRNA) RNA: UUUGAUUAAUAUGAUAUCGUUCUUUCUUGUAUGCUUUUCUUUCUCGAUAUCAUAUUAAUCUUU,23.9 nM
20,Ic_S2_P4E.1_K4.1_C4.1_H4.1_A4.1_[A6G]_F4.1_[T8A]_[A9C]_T4.1 (ssRNA) RNA: UUUGAUUAAUAUGAUAUCGUUCUUUCUUGUAUGUACUUCUUUCUCGAUAUCAUAUUAAUCUUU,55.8 nM
21,Ic_S2_P4E.1_K4.1_C4.1_H4.1_A4.1_[A6T]_[T7G]_F4.1_[T8G]_[A9C]_T4.1 (ssRNA) RNA: UUUGAUUAAUAUGAUAUCGUUCUUUCUUGUAUUGGCUUCUUUCUCGAUAUCAUAUUAAUCUUU,> 2300 nM
22,Ic_S2_P4E.1_K4.1_C4.1_H4.1_A4.1_[A6G]_F4.1_[T8G]_[A9T]_T4.1 (ssRNA) RNA: UUUGAUUAAUAUGAUAUCGUUCUUUCUUGUAUGUGUUUCUUUCUCGAUAUCAUAUUAAUCUUU,17 nM
23,UCUCUUUGUAUAUGUUCUCUU (ssRNA) [Ic_S1_P4E.1_K4.1_C4.1_H4.1_A4.1_F4.1_[T8G]_[A9T]_T4.1],15.6 nM
24,UCUCUUUGUAUAUCUUCUCUU (ssRNA) [Ib_S1_P4E.1_K4.1_C4.1_H4.1_A4.1_F4.1_[T8C]_[A9T]_T4.1],13.4 nM

# From article PMC9352680, “A comprehensive thermodynamic model for RNA binding by the Saccharomyces cerevisiae Pumilio protein PUF4”
